In US20140087995A1 (published 2014) one finds IC50 data, which are given here for 6 molecules.

This experiment addresses T1, human amylin receptor (Amylin 3(a) receptor: human calcitonin receptor co-expressed with RAMP-3) (human, UniProt P30988 25-474; O60896 24-148, limits assumed).
T1 construct: whole, on cells; Used as cell membranes prepared from the Amylin 3(a)/CRE-luc BHK cells (Assay V); the complex is called the human amylin receptor; also called hAmylin-R; hAmylinR
T1 sequence (looked up) 1: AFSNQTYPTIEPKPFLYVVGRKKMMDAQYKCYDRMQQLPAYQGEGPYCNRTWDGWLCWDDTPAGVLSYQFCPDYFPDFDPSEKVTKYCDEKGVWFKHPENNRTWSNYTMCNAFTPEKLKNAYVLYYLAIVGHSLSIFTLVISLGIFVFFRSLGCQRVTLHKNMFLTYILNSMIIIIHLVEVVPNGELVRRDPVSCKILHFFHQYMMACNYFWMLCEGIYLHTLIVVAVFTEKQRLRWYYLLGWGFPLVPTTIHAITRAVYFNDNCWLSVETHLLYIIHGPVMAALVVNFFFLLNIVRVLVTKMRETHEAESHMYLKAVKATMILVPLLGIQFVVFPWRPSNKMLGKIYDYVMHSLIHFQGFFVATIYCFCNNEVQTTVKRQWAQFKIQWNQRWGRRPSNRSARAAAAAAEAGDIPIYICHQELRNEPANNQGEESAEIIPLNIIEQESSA
T1 sequence (looked up) 2: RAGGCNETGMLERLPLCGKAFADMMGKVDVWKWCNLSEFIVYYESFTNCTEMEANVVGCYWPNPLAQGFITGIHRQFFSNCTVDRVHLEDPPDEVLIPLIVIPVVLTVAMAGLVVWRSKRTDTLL
Kind of experiment: SPA competition binding, displacement of 125I-rat amylin from membranes of BHK cells with human calcitonin receptor + RAMP-3 (Assay V). On the procedure: The binding assay was performed using scintillation proximity assay (SPA) beads (RPNQ0001) from PerkinElmer and cell membranes from the Amylin 3(a)/CRE-luc cells (as described in Assay (II)) were used. Membranes were prepared in the following way; the cells were rinsed with PBS and incubated with Versene for approximately 5 min before harvesting. The cells were flushed with PBS and the cell-suspension was centrifuged for 5 min at 1000 rpm. Cells were homogenized (ultrathurrax) in a buffer containing 20 mM Na-HEPES and 10 mM EDTA (pH 7.4) and centrifuged at 20.000 rpm for 15 min. The resulting pellet was resuspended, homogenized and centrifuged (20.000 rpm, 15 min) in a buffer containing 20 mM Na-HEPES and 0.1 mM EDTA (pH 7.4, buffer 2). The resulting pellet was resuspended in buffer 2 and protein concentration was measured (BCA protein Assay, Pierce). The homogenate was kept cold during the whole procedure. The membranes were kept at −80° C. until use. The assay was performed in a 384 well Optiplate (PerkinElmer) in a total volume of 40 ul. Membranes were mixed with SPA beads. Final concentration of membranes 35 ng/μL final and SPA beads was 0.05 mg/well. Test-compounds were dissolved in DMSO and further diluted in assay buffer (50 mM Hepes, pH 7.4, 1 mM CaCl2, 5 mM MgCl₂, 0.1% OA and 0.02% Tween20). […] The final mixture was incubated with shaking at 400 rpm for 120 min at 25° C. prior to centrifugation (1500 rpm, 10 min). Samples were analyzed on TopCounter™ (Packard). The IC₅₀ was calculated using (one site binding competition analysis) GraphPad Prism5 as a measure of receptor affinity.

Numbered stars: 1 amine (or outer) side, 2 acyl side, 3 side chain; on linkers, the order of the positions; unused ones are H or OH. Bridge positions count the residues as written; N and C are the ends. Side chains are listed from the residue outwards. Ends that are not written are not given here. * marks the point of attachment. C20 diacid = O=C(O)CCCCCCCCCCCCCCCCCCC(=O)*; C18 diacid = O=C(O)CCCCCCCCCCCCCCCCC(=O)*; C16 diacid = O=C(O)CCCCCCCCCCCCCCC(=O)*; γGlu = O=C(O)[C@H](CCC(=O)[*:2])N[*:1]; C14 diacid = O=C(O)CCCCCCCCCCCCC(=O)*

The IC50 is the concentration at which inhibition is half-maximal.

B1: N{-1}-[(4S)-4-carboxy-4-(19-carboxynonadecanoylamino)butanoyl]-Gly[Arg1,His14,Arg17,Pro21,Pro27]-h-amylin (peptide)
peptide: {C20 diacid-γGlu}-GRCNTATCATQRLAHFLRHSSPNFGAIPSSTNVGSNTY-NH2
modifications: disulfide 3-8
SMILES: CC[C@H](C)[C@H](NC(=O)[C@H](C)NC(=O)CNC(=O)[C@H](Cc1ccccc1)NC(=O)[C@H](CC(N)=O)NC(=O)[C@@H]1CCCN1C(=O)[C@H](CO)NC(=O)[C@H](CO)NC(=O)[C@H](Cc1c[nH]cn1)NC(=O)[C@H](CCCNC(=N)N)NC(=O)[C@H](CC(C)C)NC(=O)[C@H](Cc1ccccc1)NC(=O)[C@H](Cc1c[nH]cn1)NC(=O)[C@H](C)NC(=O)[C@H](CC(C)C)NC(=O)[C@H](CCCNC(=N)N)NC(=O)[C@H](CCC(N)=O)NC(=O)[C@@H](NC(=O)[C@H](C)NC(=O)[C@@H]1CSSC[C@H](NC(=O)[C@H](CCCNC(=N)N)NC(=O)CNC(=O)CC[C@H](NC(=O)CCCCCCCCCCCCCCCCCCC(=O)O)C(=O)O)C(=O)N[C@@H](CC(N)=O)C(=O)N[C@@H]([C@@H](C)O)C(=O)N[C@@H](C)C(=O)N[C@@H]([C@@H](C)O)C(=O)N1)[C@@H](C)O)C(=O)N1CCC[C@H]1C(=O)N[C@@H](CO)C(=O)N[C@@H](CO)C(=O)N[C@H](C(=O)N[C@@H](CC(N)=O)C(=O)N[C@H](C(=O)NCC(=O)N[C@@H](CO)C(=O)N[C@@H](CC(N)=O)C(=O)N[C@H](C(=O)N[C@@H](Cc1ccc(O)cc1)C(N)=O)[C@@H](C)O)C(C)C)[C@@H](C)O
notes: modifications are with respect to human amylin; also called compound 99
For the molecule B1, the half-maximal inhibitory concentration (IC50) came to 0.348 nM.

B2: N^ε1-[(4S)-4-carboxy-4-[[(4S)-4-carboxy-4-(19-carboxynonadecanoylamino)butanoyl]amino]butanoyl]-[Glu14,Arg17,Pro21,Pro27,Pro34,Glu35]-h-amylin (peptide)
peptide: K([γGlu-γGlu-C20 diacid])CNTATCATQRLAEFLRHSSPNFGAIPSSTNVGPETY-NH2
modifications: disulfide 2-7 (inferred)
notes: modifications are with respect to human amylin
As for B2, the IC50 was found to be 0.121 nM.

B3: N^ε1-[(4S)-4-carboxy-4-(17-carboxyheptadecanoylamino)butanoyl]-[Arg17,Pro21,Pro27,His34]-h-amylin (peptide)
peptide: K([γGlu-C18 diacid])CNTATCATQRLANFLRHSSPNFGAIPSSTNVGHNTY-NH2
modifications: disulfide 2-7; N-terminus assumed
SMILES: CC[C@H](C)[C@H](NC(=O)[C@H](C)NC(=O)CNC(=O)[C@H](Cc1ccccc1)NC(=O)[C@H](CC(N)=O)NC(=O)[C@@H]1CCCN1C(=O)[C@H](CO)NC(=O)[C@H](CO)NC(=O)[C@H](Cc1c[nH]cn1)NC(=O)[C@H](CCCNC(=N)N)NC(=O)[C@H](CC(C)C)NC(=O)[C@H](Cc1ccccc1)NC(=O)[C@H](CC(N)=O)NC(=O)[C@H](C)NC(=O)[C@H](CC(C)C)NC(=O)[C@H](CCCNC(=N)N)NC(=O)[C@H](CCC(N)=O)NC(=O)[C@@H](NC(=O)[C@H](C)NC(=O)[C@@H]1CSSC[C@H](NC(=O)[C@@H](N)CCCCNC(=O)CC[C@H](NC(=O)CCCCCCCCCCCCCCCCC(=O)O)C(=O)O)C(=O)N[C@@H](CC(N)=O)C(=O)N[C@@H]([C@@H](C)O)C(=O)N[C@@H](C)C(=O)N[C@@H]([C@@H](C)O)C(=O)N1)[C@@H](C)O)C(=O)N1CCC[C@H]1C(=O)N[C@@H](CO)C(=O)N[C@@H](CO)C(=O)N[C@H](C(=O)N[C@@H](CC(N)=O)C(=O)N[C@H](C(=O)NCC(=O)N[C@@H](Cc1c[nH]cn1)C(=O)N[C@@H](CC(N)=O)C(=O)N[C@H](C(=O)N[C@@H](Cc1ccc(O)cc1)C(N)=O)[C@@H](C)O)C(C)C)[C@@H](C)O
notes: as for B2
Take B3: the IC50 is 0.382 nM.

B4: N^ε1-[(4S)-4-carboxy-4-(15-carboxypentadecanoylamino)butanoyl]-[Arg17,Pro21,Pro27,His34]-h-amylin (peptide)
peptide: K([γGlu-C16 diacid])CNTATCATQRLANFLRHSSPNFGAIPSSTNVGHNTY-NH2
modifications: disulfide 2-7; N-terminus assumed
SMILES: CC[C@H](C)[C@H](NC(=O)[C@H](C)NC(=O)CNC(=O)[C@H](Cc1ccccc1)NC(=O)[C@H](CC(N)=O)NC(=O)[C@@H]1CCCN1C(=O)[C@H](CO)NC(=O)[C@H](CO)NC(=O)[C@H](Cc1c[nH]cn1)NC(=O)[C@H](CCCNC(=N)N)NC(=O)[C@H](CC(C)C)NC(=O)[C@H](Cc1ccccc1)NC(=O)[C@H](CC(N)=O)NC(=O)[C@H](C)NC(=O)[C@H](CC(C)C)NC(=O)[C@H](CCCNC(=N)N)NC(=O)[C@H](CCC(N)=O)NC(=O)[C@@H](NC(=O)[C@H](C)NC(=O)[C@@H]1CSSC[C@H](NC(=O)[C@@H](N)CCCCNC(=O)CC[C@H](NC(=O)CCCCCCCCCCCCCCC(=O)O)C(=O)O)C(=O)N[C@@H](CC(N)=O)C(=O)N[C@@H]([C@@H](C)O)C(=O)N[C@@H](C)C(=O)N[C@@H]([C@@H](C)O)C(=O)N1)[C@@H](C)O)C(=O)N1CCC[C@H]1C(=O)N[C@@H](CO)C(=O)N[C@@H](CO)C(=O)N[C@H](C(=O)N[C@@H](CC(N)=O)C(=O)N[C@H](C(=O)NCC(=O)N[C@@H](Cc1c[nH]cn1)C(=O)N[C@@H](CC(N)=O)C(=O)N[C@H](C(=O)N[C@@H](Cc1ccc(O)cc1)C(N)=O)[C@@H](C)O)C(C)C)[C@@H](C)O
notes: as for B2
As for B4, the IC50 was determined as 0.58 nM.

B5: N^ε1-[(4S)-4-carboxy-4-(13-carboxytridecanoylamino)butanoyl]-[Arg17,Pro21,Pro27,His34]-h-amylin (peptide)
peptide: K([γGlu-C14 diacid])CNTATCATQRLANFLRHSSPNFGAIPSSTNVGHNTY-NH2
modifications: disulfide 2-7; N-terminus assumed
SMILES: CC[C@H](C)[C@H](NC(=O)[C@H](C)NC(=O)CNC(=O)[C@H](Cc1ccccc1)NC(=O)[C@H](CC(N)=O)NC(=O)[C@@H]1CCCN1C(=O)[C@H](CO)NC(=O)[C@H](CO)NC(=O)[C@H](Cc1c[nH]cn1)NC(=O)[C@H](CCCNC(=N)N)NC(=O)[C@H](CC(C)C)NC(=O)[C@H](Cc1ccccc1)NC(=O)[C@H](CC(N)=O)NC(=O)[C@H](C)NC(=O)[C@H](CC(C)C)NC(=O)[C@H](CCCNC(=N)N)NC(=O)[C@H](CCC(N)=O)NC(=O)[C@@H](NC(=O)[C@H](C)NC(=O)[C@@H]1CSSC[C@H](NC(=O)[C@@H](N)CCCCNC(=O)CC[C@H](NC(=O)CCCCCCCCCCCCC(=O)O)C(=O)O)C(=O)N[C@@H](CC(N)=O)C(=O)N[C@@H]([C@@H](C)O)C(=O)N[C@@H](C)C(=O)N[C@@H]([C@@H](C)O)C(=O)N1)[C@@H](C)O)C(=O)N1CCC[C@H]1C(=O)N[C@@H](CO)C(=O)N[C@@H](CO)C(=O)N[C@H](C(=O)N[C@@H](CC(N)=O)C(=O)N[C@H](C(=O)NCC(=O)N[C@@H](Cc1c[nH]cn1)C(=O)N[C@@H](CC(N)=O)C(=O)N[C@H](C(=O)N[C@@H](Cc1ccc(O)cc1)C(N)=O)[C@@H](C)O)C(C)C)[C@@H](C)O
notes: as for B2
For the molecule B5, the IC50 came to 1.04 nM.

B6: N^ε1-[(4S)-4-carboxy-4-(19-carboxynonadecanoylamino)butanoyl]-[Asp14,Arg17,Pro21,Pro27,Pro34,Arg35]-h-amylin (peptide)
peptide: K([γGlu-C20 diacid])CNTATCATQRLADFLRHSSPNFGAIPSSTNVGPRTY-NH2
modifications: disulfide 2-7; N-terminus assumed
SMILES: CC[C@H](C)[C@H](NC(=O)[C@H](C)NC(=O)CNC(=O)[C@H](Cc1ccccc1)NC(=O)[C@H](CC(N)=O)NC(=O)[C@@H]1CCCN1C(=O)[C@H](CO)NC(=O)[C@H](CO)NC(=O)[C@H](Cc1c[nH]cn1)NC(=O)[C@H](CCCNC(=N)N)NC(=O)[C@H](CC(C)C)NC(=O)[C@H](Cc1ccccc1)NC(=O)[C@H](CC(=O)O)NC(=O)[C@H](C)NC(=O)[C@H](CC(C)C)NC(=O)[C@H](CCCNC(=N)N)NC(=O)[C@H](CCC(N)=O)NC(=O)[C@@H](NC(=O)[C@H](C)NC(=O)[C@@H]1CSSC[C@H](NC(=O)[C@@H](N)CCCCNC(=O)CC[C@H](NC(=O)CCCCCCCCCCCCCCCCCCC(=O)O)C(=O)O)C(=O)N[C@@H](CC(N)=O)C(=O)N[C@@H]([C@@H](C)O)C(=O)N[C@@H](C)C(=O)N[C@@H]([C@@H](C)O)C(=O)N1)[C@@H](C)O)C(=O)N1CCC[C@H]1C(=O)N[C@@H](CO)C(=O)N[C@@H](CO)C(=O)N[C@H](C(=O)N[C@@H](CC(N)=O)C(=O)N[C@H](C(=O)NCC(=O)N1CCC[C@H]1C(=O)N[C@@H](CCCNC(=N)N)C(=O)N[C@H](C(=O)N[C@@H](Cc1ccc(O)cc1)C(N)=O)[C@@H](C)O)C(C)C)[C@@H](C)O
notes: as for B2
Turning to B6, the 50% inhibitory concentration (IC50) was 0.281 nM.
